# According to US20170218369, “AN ANTAGONISTIC PD-1 APTAMER AND ITS APPLICATIONS IN CANCER THERAPY RELATED APPLICATIONS” (Academia Sinica, published 2017):
# How the values were obtained:
# [1] = target: T1, PD-1 (programmed cell death protein 1) (Mus musculus, UniProt Q02242 Q02242:25-169); assay: ELONA; ++ class; details: tags: His tag, immobilized on Ni-NTA plate; label: 5'-biotin
# Description: (§1) Briefly, 200 ng of histidine-tag labeled PD-1 receptors (His tag-PD1 protein) were coated on nickel-nitrilotriacetic acid (Ni-NTA) coated plates and treated with aptamers conjugated at their 5′ end to biotin (Biotin-PD-1 aptamer). Binding of the aptamers to PD-1 was detected using streptavidin-HRP and ECL substrate. The aptamers tested were:
# (§2) The above aptamers were tested for binding to human, mouse, rat, rhesus monkey and/or canine PD-1 using the in vitro PD-1 binding assay depicted in FIG. 9.
# [2] = target: PD-1 (programmed cell death protein 1) extracellular domain (UniProt Q15116 Q15116:25-170); assay: filter; total binding assay
# [3] = target: T1, PD-1 (programmed cell death protein 1); assay: ELONA; +++ class; details: tags: His tag, immobilized on Ni-NTA plate; label: 5'-biotin
# Description: as §1, §2
# [4] = target: PD-1 (programmed cell death protein 1) (Homo sapiens, UniProt Q15116 Q15116:25-170); assay: competition; inhibition of PD-1/PD-L1 interaction; details: tags: His tag, immobilized on Ni-NTA plate
# Description: Each of the above aptamer nucleotide sequences were tested for PD-1 antagonistic activity using an in vitro competition assay. Briefly, 200 ng of histidine-tag labeled PD-1 receptors (His tag-PD1 protein) were coated on nickel-nitrilotriacetic acid (Ni-NTA) coated plates and treated with Fc-labeled PDL-1 protein/aptamer mixture. Protein G-HRP and ECL substrate was used to determine the binding signal. The PD-1 antagonistic antibody J116 was used as a positive control and the negative control was performed in the absence of aptamer or antibody. A schematic representation of the competition assay is shown in FIG. 8, panels A and B. Each of the aptamer sequences (Cores 1-6 and Core 1(optimized)) were tested in the in vitro competition assay at a concentration of 200 nM. In the competition assay, each aptamer nucleotide sequence inhibited the interaction between PD-1 and PDL-1 as shown in FIG. 6.
# T1 sequence (Q02242 25-169, one chain of several): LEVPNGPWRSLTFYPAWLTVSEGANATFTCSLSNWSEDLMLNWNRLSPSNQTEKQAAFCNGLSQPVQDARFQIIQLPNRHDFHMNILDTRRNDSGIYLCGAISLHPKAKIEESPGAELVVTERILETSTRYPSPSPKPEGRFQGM
# PD-1 (programmed cell death protein 1) extracellular domain, sequence (Q15116 25-170, one chain of several): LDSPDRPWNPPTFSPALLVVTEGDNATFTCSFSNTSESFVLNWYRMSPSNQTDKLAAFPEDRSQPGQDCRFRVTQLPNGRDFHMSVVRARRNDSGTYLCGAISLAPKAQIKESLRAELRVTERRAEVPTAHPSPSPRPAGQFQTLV
# PD-1 (programmed cell death protein 1) (Homo sapiens, UniProt Q15116 Q15116:25-170), sequence (Q15116 25-170, one chain of several): as above
binder,measurement,setting,value
CCATCTCCC (ssDNA) [Core 1 (5'-biotin)],Kd,[1],44.7 nM
PD16 (ssDNA) DNA: TCCCTACGGCGCTAACTGATCACAAGAATAACTATCCCATCTCCCTGCCACCGTGCTACAAC,Kd,[2],2.1 nM
TATATTGTCC (ssDNA) [Core 2 (5'-biotin)],Kd,[3],< 20 nM
CCATCTCCC (ssDNA) [Core 1],IC50,[4],31.2 nM
PD7 (ssDNA) DNA: TCCCTACGGCGCTAACCTTCCATCTCCCATGCTTAGTCAAACATACGCCACCGTGCTACAAC,Kd,[2],9.7 nM
PD7 (5'-biotin) (ssDNA) DNA: TCCCTACGGCGCTAACCTTCCATCTCCCATGCTTAGTCAAACATACGCCACCGTGCTACAAC,Kd,[3],< 20 nM
PD100 (5'-biotin) (ssDNA) DNA: TCCCTACGGCGCTAACCCTCCCCTAGTATATATTGTCCTCGTCTATGCCACCGTGCTACAAC,Kd,[1],44.7 nM
